Source: PMC6913129
Where two headings read alike, the source gives them in different places.

B1: m7GpppAmG-16ntRNA (ssRNA)
RNA: AGGAGACCGGCCUCGA
modifications: 5' m7GpppAm cap 1 (2'-O-methyl A1)
B2: m7GpppAG-16ntRNA (m7GpppA) (ssRNA)
RNA: AGGAGACCGGCCUCGA
modifications: 5' m7GpppA cap 0
B3: NADH-16ntRNA (ssRNA)
RNA: AGGAGACCGGCCUCGA
modifications: 5' NADH cap (first A is the NADH adenosine, inferred)
B4: NAD+-16ntRNA (ssRNA)
RNA: AGGAGACCGGCCUCGA
modifications: 5' NAD+ cap (first A is the NAD adenosine, inferred)
B5: GpppA-16ntRNA (ssRNA)
RNA: AGGAGACCGGCCUCGA
modifications: 5' GpppA cap (unmethylated; cap G not in strand)
B6: pppA-16ntRNA (ssRNA)
RNA: AGGAGACCGGCCUCGA
modifications: 5' triphosphate

Columns and labels:
Assay in all cases: BLI
IFIT1 = target: T1, IFIT1 (UniProt P09914 1-478)
T1 sequence: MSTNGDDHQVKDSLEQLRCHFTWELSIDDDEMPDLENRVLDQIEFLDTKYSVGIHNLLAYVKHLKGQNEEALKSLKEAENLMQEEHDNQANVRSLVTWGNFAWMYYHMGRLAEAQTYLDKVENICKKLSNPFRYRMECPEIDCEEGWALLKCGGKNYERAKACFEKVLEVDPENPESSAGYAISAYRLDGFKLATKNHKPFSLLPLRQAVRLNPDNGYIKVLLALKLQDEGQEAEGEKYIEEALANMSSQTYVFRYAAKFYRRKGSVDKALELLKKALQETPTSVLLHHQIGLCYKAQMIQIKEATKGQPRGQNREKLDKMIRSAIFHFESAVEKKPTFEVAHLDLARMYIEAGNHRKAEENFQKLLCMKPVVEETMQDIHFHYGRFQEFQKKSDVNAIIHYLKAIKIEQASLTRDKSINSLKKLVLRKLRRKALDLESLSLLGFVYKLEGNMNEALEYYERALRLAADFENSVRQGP

IFIT5 [1] = target: T2, IFIT5 (UniProt Q13325 1-482)
T2 sequence: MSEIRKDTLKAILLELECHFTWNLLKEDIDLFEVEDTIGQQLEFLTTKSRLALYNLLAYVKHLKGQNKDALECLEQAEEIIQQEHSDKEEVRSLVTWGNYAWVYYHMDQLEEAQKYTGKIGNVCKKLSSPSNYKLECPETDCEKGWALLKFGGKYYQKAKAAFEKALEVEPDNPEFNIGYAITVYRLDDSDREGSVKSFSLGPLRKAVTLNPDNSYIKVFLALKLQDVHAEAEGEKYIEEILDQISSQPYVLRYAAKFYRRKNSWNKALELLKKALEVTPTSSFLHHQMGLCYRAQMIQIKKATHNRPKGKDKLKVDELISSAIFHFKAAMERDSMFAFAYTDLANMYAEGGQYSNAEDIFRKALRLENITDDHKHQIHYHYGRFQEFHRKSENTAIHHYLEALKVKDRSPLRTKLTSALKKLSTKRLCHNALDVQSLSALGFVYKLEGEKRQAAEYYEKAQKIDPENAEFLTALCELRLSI

IFIT5 [2] = target: T2, IFIT5; remark: listed apart in the source

Row | Binder | Kd (IFIT1) [nM] | further results
1 | B1 | 44 | 
2 | B2 | 6.12 | 
3 | B3 |  | binding result (IFIT5 [1]): binds
4 | B4 |  | binding result (IFIT5 [2]): binds
5 | B5 | 2.65 | 
6 | B6 | 23.4 | 
